Test results from the supplement of paper PMC12764529.
± gives the half width of the 95% confidence interval.

Tests used:
[1] = folding stability dG unfold from chymotrypsin proteolysis; higher = more stable
Procedure, shortened: (§1)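 How resistant each design was to proteolysis was captured as K50, inferred by Bayesian fitting of sequencing counts. Unfolding free energy was then derived relative to a sequence-predicted unfolded-state K50 and a shared folded-state K50, per protease or combined. Digestion used trypsin and chymotrypsin at 11 threefold-diluted concentrations plus a no-protease condition, on mini-proteins under 80 residues without cysteine in a PA-tagged cDNA display construct. Designs were kept only when AlphaFold2 dimer inter-PAE was above 15.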

[2] = folding stability dG unfold (combined trypsin and chymotrypsin); higher = more stable
Procedure, shortened: as §1

Sequence | folding stability dG unfold [1] | folding stability dG unfold [2]
SAGGSAGMRMQIQIPNDEIPPEKIEDALQEYGWNPTDVYPPDNGVSVTFEMDPGDMNKLMEAIKKLSAGGSA [r15_161_TrROS] | 0.843 ± 0.29 kcal/mol | 0.107 ± 0.35 kcal/mol
SAGGSAGMVVEPREVVIKLKPPNGPETTLEVELVEVEPDSLVLRNGDTPIVLPPDAEDVEILEVTGSAGGSA [r15_510_JUSTAS] | 0.401 ± 0.088 kcal/mol | 0.0501 ± 0.22 kcal/mol
SAGGSAGPMPSTVTTLATAPLPDGTLVVTTLERTPDSVTRTTTTYKPADGSPLGTASTTYPAPAALSAGGSA [r15_716_JUSTAS] | 0.808 ± 0.15 kcal/mol | -0.0279 ± 0.14 kcal/mol
SAGGSAGSVPSIVIESYDPEKGIVTVSYPATGATYTVEVPPGSTSLTVTVTDADGTPRTFTFPLPGSAGGSA [r2_132_JUSTAS] | 5.31 ± 0.1 kcal/mol | 5.36 ± 0.12 kcal/mol
SAGGSAHPVQFPNGQEFPIRNPKNGKDFKIRMEQEDGPMRAEIEYPGGGKKRRIDGPMSLEEALKQSAGGSA [r15_234_TrROS] | 0.509 ± 0.12 kcal/mol | -0.0891 ± 0.24 kcal/mol
SAGGSAITLEDIRNMPIEEIAKEMQDHFPNGQKQPIEFEYPDGRKLRIKAEYPPNGEPKIDIEPVDSAGGSA [r15_857_TrROS] | 0.139 ± 0.14 kcal/mol | < -1 kcal/mol
SAGGSAKLRVAEADFVPGALLEAIEELEKAPAGAEVEVRPGDPLEPKERPVRFVVNEKGELLEVVGSAGGSA [r15_228_TrMRF] | -0.619 ± 0.32 kcal/mol | < -1 kcal/mol
SAGGSAKPGEKLKIRMWNPDGETHEFDVKIPPGVRIRMPDNGQEQTFPPGDEIPFPPNMPIQVEKVSAGGSA [r15_152_TrROS] | 0.309 ± 0.086 kcal/mol | -0.121 ± 0.29 kcal/mol
SAGGSAKRVAFIGGGPEIEKVIKEAEKNGFEAVPFDGTPDEFLDALKKNFPDVKQIVFPDGKVLDASAGGSA [r15_712_TrMRF] | 0.192 ± 0.13 kcal/mol | -0.134 ± 0.13 kcal/mol
SAGGSALTPAVAERLRELFPDGDLGLKAVKPGEVVVFPNGARNFNTEDAERVVVVLPDGEPLVLDVSAGGSA [r2_166_TrMRF] | 0.117 ± 0.14 kcal/mol | -0.241 ± 0.23 kcal/mol
SAGGSAMKAKVVDTSLKESKTKDDSIIVTVTVKYPDGSVTPIVYPVSSSGGISEEEVEKAIKELLESAGGSA [r15_233_JUSTAS] | -0.138 ± 0.057 kcal/mol | -0.661 ± 0.14 kcal/mol
SAGGSAMKTAEVVLDVPEEELEAARAAGEGLSAEVRARMEALAAEVRAAGYDEVVLRLRPSSVPLPSAGGSA [r15_304_JUSTAS] | -0.0294 ± 0.24 kcal/mol | < -1 kcal/mol
SAGGSAMPRSSVSIVSVERAPDGTVTIPTKTTLTTPDGTVTTEESTVTLEVPPGRELSEEEIKKLLSAGGSA [r15_836_JUSTAS] | 0.983 ± 0.017 kcal/mol | 0.53 ± 0.11 kcal/mol
SAGGSAMTEEEFETEFSDPNNSLSTKVKTTRYLEGDTPVVKTTYTTEDPNTGSTYTTEKVTVIPKKSAGGSA [r15_960_JUSTAS] | -0.218 ± 0.18 kcal/mol | -0.891 ± 0.29 kcal/mol
SAGGSAMVVPVASEEEARAVAEEAAARGEPVVIAFPGGRALVVETAAAPTPEPVLRVEEREVPPLLSAGGSA [r15_761_JUSTAS] | 0.744 ± 0.0083 kcal/mol | 0.216 ± 0.034 kcal/mol
SAGGSASTREVGDKTLTVTPIKLPNGTNLVLLRTFDPATGKVPVLAFPPEEGNPLGESVLPASELLSAGGSA [r15_671_JUSTAS] | -0.654 ± 0.14 kcal/mol | < -1 kcal/mol
SAGGSASVSVTELSPEERAALEAAGVEVPDDRPRVVETRTVTPAGGAVVTVRVLPEPPLSPEELAASAGGSA [r15_322_JUSTAS] | 0.311 ± 0.013 kcal/mol | -0.127 ± 0.066 kcal/mol
SAGGSASVSYDPTPGPTRRTTTLLETEEVGPNLKRVKTKVTLFPSDGVPTTSTVTELDLVPPPELPSAGGSA [r15_1035_JUSTAS] | 0.527 ± 0.057 kcal/mol | 0.128 ± 0.11 kcal/mol

Sequence | folding stability dG unfold [1] | folding stability dG unfold [2]
SAGGSETLELTIEIPGLGQPVSARSTSFDPEKGLWTAEMKSPVPGLRRTLTYDPVTGTVSSTTTLLSAGGSA [r2_147_JUSTAS] | 0.341 ± 0.13 kcal/mol | 0.108 ± 0.13 kcal/mol
SAGGSGDSMLVPVSESTSSYPPSGIVRSTKTILDPKKGGIITETTTTTLTPDGNPLSTTPSTTVKESAGGSA [r2_253_JUSTAS] | 0.344 ± 0.032 kcal/mol | -0.244 ± 0.23 kcal/mol
SAGGSGMWTPKQVKLLAEPGKSKTITIPGPVSEEEINALLNAGEPVIITLPDGTVLKAEKNTITLESAGGSA [r2_33_JUSTAS] | 0.138 ± 0.084 kcal/mol | -0.371 ± 0.15 kcal/mol
SAGGSGSRIVVETITEYEVFETPTGKKKTKVFKTKKIVTETVPMSPADVAAYEAALAEGLGPGALASAGGSA [r2_327_JUSTAS] | 0.714 ± 0.16 kcal/mol | -0.234 ± 0.17 kcal/mol
SAGGSIPAEEIADKLRKEPGIPEDDVEVNVERRPGQVTIDVKMDDPDHPQHRRMKKRAQDALQKLLSAGGSA [r2_3_TrROS] | 0.186 ± 0.31 kcal/mol | -0.133 ± 0.3 kcal/mol
SAGGSMKDIPAEEIAKLFAAKLGYPILDAKVEKNPVKPVYKLYIVVEEKNPGKKFPREITIPSELLSAGGSA [r2_156_TrMRF] | 0.196 ± 0.25 kcal/mol | -0.0499 ± 0.22 kcal/mol
SAGGSMLVTVKFKTLPDGTVDHNPKLLAKVDGPEPDPADPATVRLPVDPAVVAQWPEEVAEEMEILASAGGS [r16_328_JUSTAS] | 0.155 ± 0.086 kcal/mol | -0.159 ± 0.074 kcal/mol
SAGGSMPPVVEPATLTLGNGPATQLQRYPGVELVVYRRPPENTILFLSSSGQVLEERKVSPETPVSELSAGG [r13_507_JUSTAS] | -0.318 ± 0.31 kcal/mol | < -1 kcal/mol
SAGGSMSTTLPDGGKVTVYSDPNKPLTLVEVELPDRRLVVLRPVSAPEDGTIVAPVEVRPLEEVEEASAGGS [r16_85_JUSTAS] | -0.0108 ± 0.18 kcal/mol | < -1 kcal/mol
SAGGSMTVSTAPDGTLKVYDPATGKLNPLPVPPVPLVVSRSVQPDKGVVITTTTTPSGEVTVSTTALSAGGS [r16_453_JUSTAS] | 0.394 ± 0.06 kcal/mol | -0.159 ± 0.075 kcal/mol
SAGGSMTVVTVEARPPDSSETTVTPLTETAPDGRPRAISLEEARARLAAEPDRPVTRVTVRPEAAASAGGSA [r2_192_JUSTAS] | 0.452 ± 0.057 kcal/mol | 0.0975 ± 0.15 kcal/mol
SAGGSPAPVRRTVTQLLKVGDKLETRVVEEVVWVPEPPPPPVIPIPEDRGLNEEPVPGTRELTFDAGSAGGS [r8_28_JUSTAS] | 0.268 ± 0.19 kcal/mol | -0.195 ± 0.37 kcal/mol
SAGGSPWIEVEIPFPPGMPADELADFIAEELDENGHDVKVDDVEQDPEEGYMKFRVRDGKSVEIPWSAGGSA [r2_242_TrROS] | -0.522 ± 0.28 kcal/mol | -0.521 ± 0.23 kcal/mol
SAGGSSNVGEVTIEIREPVNPERFVDPEYREKAIEEMKEKAEAKAEEIKKENPNVKVTVNISLLEPGSAGGS [r8_183_JUSTAS] | 0.659 ± 0.07 kcal/mol | -0.00749 ± 0.36 kcal/mol
SAGGSSSVTEISISRSRQRPDASGRWVTEPVLPPGVYAPTTVVHENGVLTFNTVYDGKPVTETIPLSSAGGS [r16_500_JUSTAS] | 0.47 ± 0.13 kcal/mol | -0.0547 ± 0.12 kcal/mol
SAGGSSVKVVKTEVTEDPATGLTTVTETFENGAKATFTIDPATGTVPGETEYPDKKVKYTGYDPLPPSAGGS [r8_363_JUSTAS] | 0.588 ± 0.15 kcal/mol | -0.111 ± 0.31 kcal/mol
SAGGSTVTFSSEEEIAKLKPVLKKGNPTTLYLNEVRERLLPNGEPVLVPRDVTRTITLVNGKLTESETSAGG [r13_835_JUSTAS] | -0.685 ± 0.18 kcal/mol | < -1 kcal/mol
SAGGTATVEAALAALPADLPRGSLALHPETGLVEPLEPSPEDAVAYPVNPATGERYPLRVEADAVRLLSAGG [r13_803_JUSTAS] | 0.461 ± 0.079 kcal/mol | -0.517 ± 0.15 kcal/mol
